The source of these data is paper PMC6517596.

The data set has as its target KLF4 (Homo sapiens) (UniProt O43474). As to the kind of experiment: DPI-ELISA competition. The settings on record: KLF4 0-150 ng against 80 ng Sp1; 2 pmol DNA; EMSA: 2 ug nuclear extract or 50 ng KLF4, 30 min on ice, 6% native PAGE; DPI-ELISA: 2 pmol biotin-DNA, 2 h; buffer, salt and pH not stated.
UniProt O43474, sequence (O43474 whole entry): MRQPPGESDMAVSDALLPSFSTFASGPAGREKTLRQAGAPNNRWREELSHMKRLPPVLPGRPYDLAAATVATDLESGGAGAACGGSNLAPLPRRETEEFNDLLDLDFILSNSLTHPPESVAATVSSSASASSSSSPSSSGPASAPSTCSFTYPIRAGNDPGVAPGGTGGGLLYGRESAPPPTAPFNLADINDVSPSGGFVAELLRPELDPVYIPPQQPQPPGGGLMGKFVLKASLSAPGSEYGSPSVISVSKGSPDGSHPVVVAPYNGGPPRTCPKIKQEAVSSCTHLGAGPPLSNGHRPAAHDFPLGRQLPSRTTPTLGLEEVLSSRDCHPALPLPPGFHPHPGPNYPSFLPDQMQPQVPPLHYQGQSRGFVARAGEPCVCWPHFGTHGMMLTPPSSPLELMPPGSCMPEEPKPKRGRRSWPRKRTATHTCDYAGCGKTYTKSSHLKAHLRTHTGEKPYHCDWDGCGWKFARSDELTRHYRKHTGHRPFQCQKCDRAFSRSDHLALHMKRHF

On to “GGTCCCAGAGCACGAGCCCCCGCCCCCGGTGGCCCC (double strand) [CPI-17 GC box 2 biotinylated]”, for which the IC50 turned out to be 29 ng.
